For one assay, the target named is mouse PSMA (mouse, UniProt O35409 45-752, limits assumed). Nature of the assay: ELISA, Biacore and/or FACS (not said which for mouse).
The target in a further assay is T1, human PSMA (human, UniProt Q04609 44-750).
T1 construct: also called hPSMA; Human PSMA dimer (DT1596)
Nature of the assay: FACS on hPSMA (FIG. 2).

The record followed here is patent US20230059690A1 (CYTOMX THERAPEUTICS, published 2023).

Sequence of mouse PSMA (O35409 45-752 limits assumed): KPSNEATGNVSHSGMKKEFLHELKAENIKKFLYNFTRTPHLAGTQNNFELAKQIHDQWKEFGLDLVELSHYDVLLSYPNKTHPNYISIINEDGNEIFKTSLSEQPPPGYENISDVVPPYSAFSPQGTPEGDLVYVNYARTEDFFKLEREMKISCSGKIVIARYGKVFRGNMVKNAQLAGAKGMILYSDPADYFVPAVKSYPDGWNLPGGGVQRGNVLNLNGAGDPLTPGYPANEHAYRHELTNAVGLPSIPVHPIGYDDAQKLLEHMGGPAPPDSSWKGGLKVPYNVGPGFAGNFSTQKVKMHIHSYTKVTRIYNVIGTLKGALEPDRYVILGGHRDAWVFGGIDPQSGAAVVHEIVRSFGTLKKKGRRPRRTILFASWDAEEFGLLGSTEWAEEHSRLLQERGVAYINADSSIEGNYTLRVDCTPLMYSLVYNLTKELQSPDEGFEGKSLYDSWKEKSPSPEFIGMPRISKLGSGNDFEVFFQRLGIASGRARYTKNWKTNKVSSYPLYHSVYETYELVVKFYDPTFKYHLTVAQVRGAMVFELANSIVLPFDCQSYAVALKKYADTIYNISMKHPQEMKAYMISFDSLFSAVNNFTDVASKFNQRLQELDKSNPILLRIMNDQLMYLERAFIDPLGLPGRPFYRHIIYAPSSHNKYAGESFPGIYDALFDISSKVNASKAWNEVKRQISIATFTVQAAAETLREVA
T1 sequence (Q04609 44-750 limits assumed): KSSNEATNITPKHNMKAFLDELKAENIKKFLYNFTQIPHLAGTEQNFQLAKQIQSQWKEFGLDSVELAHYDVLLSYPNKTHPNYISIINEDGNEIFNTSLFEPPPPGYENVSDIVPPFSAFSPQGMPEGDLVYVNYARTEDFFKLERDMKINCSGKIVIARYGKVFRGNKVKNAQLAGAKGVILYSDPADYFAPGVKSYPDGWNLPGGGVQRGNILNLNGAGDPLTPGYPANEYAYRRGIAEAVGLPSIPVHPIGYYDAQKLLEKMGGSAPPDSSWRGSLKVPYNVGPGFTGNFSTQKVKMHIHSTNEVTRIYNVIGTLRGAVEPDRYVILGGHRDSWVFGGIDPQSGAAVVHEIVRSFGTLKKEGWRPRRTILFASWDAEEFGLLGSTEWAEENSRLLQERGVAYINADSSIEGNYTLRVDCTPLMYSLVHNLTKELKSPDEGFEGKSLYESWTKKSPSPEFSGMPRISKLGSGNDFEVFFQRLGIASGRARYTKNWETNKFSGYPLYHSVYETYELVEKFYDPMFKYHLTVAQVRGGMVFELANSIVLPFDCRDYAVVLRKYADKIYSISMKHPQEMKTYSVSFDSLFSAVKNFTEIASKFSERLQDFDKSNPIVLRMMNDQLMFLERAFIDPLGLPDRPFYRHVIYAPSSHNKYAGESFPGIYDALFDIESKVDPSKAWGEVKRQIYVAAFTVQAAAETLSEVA

B1: cHv75-2a11.G1(L328C)k (antibody, human IgG1, kappa, V domains shown)
VH: QVQLVESGGGVVQPGRSLRLSCAASGFTFSSYDMHWVRQAPGKGLEWVAVIWYDGSNKYYADSLKGRFTISRDNSKNTLYLQMNSLRAEDTAVYYCARVIAARTFYYYGMDVWGQGTTVTVSS
VL: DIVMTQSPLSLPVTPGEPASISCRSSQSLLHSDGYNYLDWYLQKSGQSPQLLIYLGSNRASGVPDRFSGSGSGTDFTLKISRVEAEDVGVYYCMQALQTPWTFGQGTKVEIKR
notes: also called [Ag]AB-4; cHv75-2a11.G1(1,328C)k
For the molecule B1, the binding result with mouse PSMA is “no binding”; in the assay with human PSMA it was “binds”.

B2: cHv75-2a7.G1(C99Y;L328C)k (antibody, V domains shown)
VH: EVQLVESGGGLVQPGGSLRLSCAASGITFSNYWMSWVRQAPGKGLEWVANIKKDGSEKFYVDSVKGRFTISRDNAKNSLYLQINSLRAEDTAMYYCAREIQLYLQHWGQGTLVTVSS
VL: DIQMTQSPSSVSASVGGRVTITCRASQGISNWLAWYQQKPGKAPKLLIYAASSLQSGVPSRFSGSGSGTDFTLTISNLQPEDFASYYCQQANSFPLTFGGGTKVEIKR
notes: also called [Ag]AB-5
With B2, the figures for the binding result in the assay with mouse PSMA and in the assay with human PSMA were “no binding” and “binds”, respectively.
